Reference: publication PMC11236980, “PARG is essential for Polθ-mediated DNA end-joining by removing repressive poly-ADP-ribose marks”

Assays:
[1] = target: Polθ-hel (human, UniProt O75417 1-894); experiment: EMSA; PARP1 or NAD+ omitted; 40 nM protein, 10 nM DNA; 25 mM Tris-HCl pH 7.5, 5 mM MgCl2, 30 mM NaCl, 5% glycerol, 0.1 mg/mL BSA, 1 mM DTT; PARylation 20 min 37 °C, binding at room temperature; 8% native PAGE 0.5x TBE; conditions: protein: recombinant; label: 5'-Cy3; single strand
[2] = target: PARP1 (UniProt P09874 1-1014); experiment: EMSA; 25 nM PARP1; 25 mM Tris-HCl pH 7.5, 5 mM MgCl2, 30 mM NaCl, 5% glycerol, 0.1 mg/mL BSA, 1 mM DTT; PARylation 20 min 37 °C, binding at room temperature; 8% native PAGE 0.5x TBE; conditions: protein: recombinant; tags: N-terminal His; label: 5'-Cy3; single strand
Chain of PARP1 (P09874 whole entry): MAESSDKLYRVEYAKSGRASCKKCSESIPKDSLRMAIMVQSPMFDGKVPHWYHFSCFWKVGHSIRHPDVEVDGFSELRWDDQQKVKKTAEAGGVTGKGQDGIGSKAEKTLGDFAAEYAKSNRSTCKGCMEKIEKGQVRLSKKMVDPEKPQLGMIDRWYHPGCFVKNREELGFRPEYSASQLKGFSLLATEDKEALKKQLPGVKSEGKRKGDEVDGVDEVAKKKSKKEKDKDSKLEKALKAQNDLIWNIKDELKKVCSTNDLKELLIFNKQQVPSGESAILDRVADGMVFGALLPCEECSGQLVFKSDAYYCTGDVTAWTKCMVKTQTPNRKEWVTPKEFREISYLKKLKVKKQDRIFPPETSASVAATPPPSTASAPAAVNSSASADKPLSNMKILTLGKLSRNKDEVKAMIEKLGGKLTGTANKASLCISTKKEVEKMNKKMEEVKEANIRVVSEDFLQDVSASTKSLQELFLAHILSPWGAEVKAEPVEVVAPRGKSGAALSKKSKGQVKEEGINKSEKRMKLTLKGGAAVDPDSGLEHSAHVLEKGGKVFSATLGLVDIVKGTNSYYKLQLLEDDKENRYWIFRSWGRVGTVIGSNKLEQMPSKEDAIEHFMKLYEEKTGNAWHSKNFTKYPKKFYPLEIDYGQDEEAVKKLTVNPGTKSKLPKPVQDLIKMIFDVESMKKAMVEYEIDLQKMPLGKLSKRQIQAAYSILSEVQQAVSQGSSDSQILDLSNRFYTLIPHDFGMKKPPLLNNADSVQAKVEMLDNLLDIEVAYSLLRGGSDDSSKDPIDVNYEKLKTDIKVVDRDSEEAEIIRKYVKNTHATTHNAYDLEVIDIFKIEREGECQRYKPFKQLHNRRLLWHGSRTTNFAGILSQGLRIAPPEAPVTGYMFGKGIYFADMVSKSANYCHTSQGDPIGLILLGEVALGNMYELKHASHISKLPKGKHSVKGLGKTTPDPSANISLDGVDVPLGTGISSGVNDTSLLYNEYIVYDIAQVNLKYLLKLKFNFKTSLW

Chain of Polθ-hel (O75417 1-894): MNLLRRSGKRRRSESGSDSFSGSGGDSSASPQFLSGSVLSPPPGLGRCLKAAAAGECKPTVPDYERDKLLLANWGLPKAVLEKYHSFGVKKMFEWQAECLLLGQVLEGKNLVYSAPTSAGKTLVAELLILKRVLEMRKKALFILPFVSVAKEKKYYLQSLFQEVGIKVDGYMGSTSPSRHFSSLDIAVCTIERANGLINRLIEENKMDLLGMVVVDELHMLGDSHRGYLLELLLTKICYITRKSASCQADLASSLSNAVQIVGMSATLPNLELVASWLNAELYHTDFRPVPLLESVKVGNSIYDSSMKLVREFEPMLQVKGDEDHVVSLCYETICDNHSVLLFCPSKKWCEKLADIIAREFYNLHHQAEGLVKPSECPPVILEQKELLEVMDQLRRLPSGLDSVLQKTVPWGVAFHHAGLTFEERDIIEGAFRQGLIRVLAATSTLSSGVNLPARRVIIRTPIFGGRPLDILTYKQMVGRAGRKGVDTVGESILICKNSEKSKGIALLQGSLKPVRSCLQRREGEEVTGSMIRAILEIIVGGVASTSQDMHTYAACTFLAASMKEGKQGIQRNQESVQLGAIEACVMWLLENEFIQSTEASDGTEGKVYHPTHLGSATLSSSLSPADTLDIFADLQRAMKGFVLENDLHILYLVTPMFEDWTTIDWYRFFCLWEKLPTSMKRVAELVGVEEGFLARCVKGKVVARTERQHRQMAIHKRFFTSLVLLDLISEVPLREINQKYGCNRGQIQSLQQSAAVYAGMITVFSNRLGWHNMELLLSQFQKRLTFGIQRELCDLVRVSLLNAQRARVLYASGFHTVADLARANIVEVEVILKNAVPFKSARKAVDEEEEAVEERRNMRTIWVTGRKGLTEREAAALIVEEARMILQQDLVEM

Does TTTTTTTTTTTTTTTTTTTTTTTTTTTTT (ssDNA) [RP316-Cy3] bind [1]?
Result: binds

Does TTTTTTTTTTTTTTTTTTTTTTTTTTTTT (ssDNA) [RP316-Cy3] bind [2]?
Result: no binding
